Consider 2 substances from US20230250158A1.

For the assay, the target named is SARS-CoV-2 Spike protein on VSV pseudotyped virus particles (Wuhan-1 isolate Spike sequence) (SARS-CoV-2) (UniProt P0DTC2). The assay is described as follows: cell-based or functional assay.

As to REGN10933 (antibody), the IC50 in pseudovirus assays turned out to be 0.67 µg/mL.
In turn, REGN10987 (antibody) had an IC50 in pseudovirus assays of 0.45 µg/mL.
